Results published in patent US20240192215A1 (E AND S HEALTHCARE, published 2024).

How the values were obtained:
Peptide_054 [1] = target: T1, Peptide_054 (human); assay: peptide microarray, 0.04 ug/mL
T1 construct: 15-mer of hTrx1 on microarray
T1 peptide: MIKPFFHSLSEKYSN
Protocol: (§1) 5, 1, 0.2, 0.04, 0.008 and 0.0016 μg/mL serial dilutions were incubated on a single multi-well microarray slide at 30° C. for 1 hour. The slide includes 21 individual mini-arrays (one mini-array per sample dilution).
(§2) DyLight 650 was used as a label. False-positive binding to a peptide was evaluated by performing one additional control incubation in which only a secondary antibody was applied on the same microarray slide. Before performing each step, the microarrays were washed with a washing buffer.

Peptide_057 [2] = target: T2, Peptide_057 (human); assay: peptide microarray, 0.04 ug/mL
T2 construct: 15-mer of hTrx1 on microarray
T2 peptide: PFFHSLSEKYSNVIF
Protocol: as §1, §2

Peptide_055 [3] = target: T3, Peptide_055 (human); assay: peptide microarray, 0.04 ug/mL
T3 construct: 15-mer of hTrx1 on microarray
T3 peptide: IKPFFHSLSEKYSNV
Protocol: as §1, §2

Peptide_049 [4] = target: T4, Peptide_049 (human); assay: peptide microarray, 0.04 ug/mL
T4 construct: 15-mer of hTrx1 on microarray
T4 peptide: CGPCKMIKPFFHSLS
Protocol: as §1, §2

Peptide_053 [5] = target: T5, Peptide_053 (human); assay: peptide microarray, 0.04 ug/mL
T5 construct: 15-mer of hTrx1 on microarray
T5 peptide: KMIKPFFHSLSEKYS
Protocol: as §1, §2

Peptide_046 [6] = target: T6, Peptide_046 (human); assay: peptide microarray, 0.04 ug/mL
T6 construct: 15-mer of hTrx1 on microarray
T6 peptide: ATWCGPCKMIKPFFH
Protocol: as §1, §2

Peptide_052 [7] = target: T7, Peptide_052 (human); assay: peptide microarray, 0.04 ug/mL
T7 construct: 15-mer of hTrx1 on microarray
T7 peptide: CKMIKPFFHSLSEKY
Protocol: as §1, §2

Peptide_048 [8] = target: T8, Peptide_048 (human); assay: peptide microarray, 0.04 ug/mL
T8 construct: 15-mer of hTrx1 on microarray
T8 peptide: WCGPCKMIKPFFHSL
Protocol: as §1, §2

Peptide_047 [9] = target: T9, Peptide_047 (human); assay: peptide microarray, 0.04 ug/mL
T9 construct: 15-mer of hTrx1 on microarray
T9 peptide: TWCGPCKMIKPFFHS
Protocol: as §1, §2

Peptide_050 [10] = target: T10, Peptide_050 (human); assay: peptide microarray, 0.04 ug/mL
T10 construct: 15-mer of hTrx1 on microarray
T10 peptide: GPCKMIKPFFHSLSE
Protocol: as §1, §2

Peptide_056 [11] = target: T11, Peptide_056 (human); assay: peptide microarray, 0.04 ug/mL
T11 construct: 15-mer of hTrx1 on microarray
T11 peptide: KPFFHSLSEKYSNVI
Protocol: as §1, §2

Peptide_054 [12] = target: T1, Peptide_054; assay: peptide microarray, 0.2 ug/mL
Protocol: as §1, §2

Peptide_057 [13] = target: T2, Peptide_057; assay: peptide microarray, 0.2 ug/mL
Protocol: as §1, §2

Peptide_055 [14] = target: T3, Peptide_055; assay: peptide microarray, 0.2 ug/mL
Protocol: as §1, §2

Peptide_049 [15] = target: T4, Peptide_049; assay: peptide microarray, 0.2 ug/mL
Protocol: as §1, §2

Peptide_053 [16] = target: T5, Peptide_053; assay: peptide microarray, 0.2 ug/mL
Protocol: as §1, §2

Peptide_046 [17] = target: T6, Peptide_046; assay: peptide microarray, 0.2 ug/mL
Protocol: as §1, §2

Peptide_052 [18] = target: T7, Peptide_052; assay: peptide microarray, 0.2 ug/mL
Protocol: as §1, §2

Peptide_048 [19] = target: T8, Peptide_048; assay: peptide microarray, 0.2 ug/mL
Protocol: as §1, §2

Peptide_047 [20] = target: T9, Peptide_047; assay: peptide microarray, 0.2 ug/mL
Protocol: as §1, §2

Peptide_050 [21] = target: T10, Peptide_050; assay: peptide microarray, 0.2 ug/mL
Protocol: as §1, §2

Peptide_056 [22] = target: T11, Peptide_056; assay: peptide microarray, 0.2 ug/mL
Protocol: as §1, §2

Peptide_054 [23] = target: T1, Peptide_054; assay: peptide microarray, 5 ug/mL
Protocol: as §1, §2

Peptide_057 [24] = target: T2, Peptide_057; assay: peptide microarray, 5 ug/mL
Protocol: as §1, §2

Peptide_053 [25] = target: T5, Peptide_053; assay: peptide microarray, 5 ug/mL
Protocol: as §1, §2

Peptide_052 [26] = target: T7, Peptide_052; assay: peptide microarray, 5 ug/mL
Protocol: as §1, §2

Peptide_048 [27] = target: T8, Peptide_048; assay: peptide microarray, 5 ug/mL
Protocol: as §1, §2

Peptide_050 [28] = target: T10, Peptide_050; assay: peptide microarray, 5 ug/mL
Protocol: as §1, §2

Peptide_056 [29] = target: T11, Peptide_056; assay: peptide microarray, 5 ug/mL
Protocol: as §1, §2

[30] = target: T12, human thioredoxin-1 (Trx1) (human, UniProt P10599 1-105); assay: ELISA on 200 ng coated hTrx1
T12 construct: also called hTrx1; hTRX1
T12 sequence (looked up): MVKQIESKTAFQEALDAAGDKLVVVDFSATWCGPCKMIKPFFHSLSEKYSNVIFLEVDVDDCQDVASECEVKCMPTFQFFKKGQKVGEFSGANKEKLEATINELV
Protocol: A reaction solution was removed, followed by washing five times with 200 μL of 1×PBST. […] A reaction solution was removed, and washed five times with 200 μL of 1×PBST. 100 μL of a color reagent was dispensed into each well, and after a 10-minute reaction, 50 μL of 2.5M H₂SO₄ was dispensed into each well. After color development, the extent of the color development was assessed using an ELISA reader.

Peptide_054 [31] = target: T1, Peptide_054; assay: peptide microarray, 1 ug/mL
Protocol: as §1, §2

Peptide_057 [32] = target: T2, Peptide_057; assay: peptide microarray, 1 ug/mL
Protocol: as §1, §2

Peptide_055 [33] = target: T3, Peptide_055; assay: peptide microarray, 1 ug/mL
Protocol: as §1, §2

Peptide_049 [34] = target: T4, Peptide_049; assay: peptide microarray, 1 ug/mL
Protocol: as §1, §2

Peptide_053 [35] = target: T5, Peptide_053; assay: peptide microarray, 1 ug/mL
Protocol: as §1, §2

Peptide_046 [36] = target: T6, Peptide_046; assay: peptide microarray, 1 ug/mL
Protocol: as §1, §2

Peptide_052 [37] = target: T7, Peptide_052; assay: peptide microarray, 1 ug/mL
Protocol: as §1, §2

Peptide_048 [38] = target: T8, Peptide_048; assay: peptide microarray, 1 ug/mL
Protocol: as §1, §2

Peptide_047 [39] = target: T9, Peptide_047; assay: peptide microarray, 1 ug/mL
Protocol: as §1, §2

Peptide_050 [40] = target: T10, Peptide_050; assay: peptide microarray, 1 ug/mL
Protocol: as §1, §2

Peptide_056 [41] = target: T11, Peptide_056; assay: peptide microarray, 1 ug/mL
Protocol: as §1, §2

B1: monoclonal antibody B266-1 (antibody, human IgG1)
light: QIVLTQSPAIMSASPGEKVTMTCSASSRISYMYWYQQKPGTSPKRWIYDTSKLASGVPARFSGSGSGTSYSLTISTMEAEDAATYYCHQRSSYPTFGAGTKLELKSVAAPSVFIFPPSDEQLKSGTASVVCLLNNFYPREAKVQWKVDNALQSGNSQESVTEQDSKDSTYSLSSTLTLSKADYEKHKVYACEVTHQGLSSPVTKSFNRGEC
heavy: not shown
notes: B266 with the Fc part changed to human IgG1; also called B266-1 (Trx1-hIgG1); B266-1 (hTrx1-hIgG1)
Peptide_054 [1]
  signal (blank-control = 1): 0.71
Peptide_057 [2]
  signal (blank-control = 1): 1.87
Peptide_055 [3]
  signal (blank-control = 1): 1.41
Peptide_049 [4]
  signal (blank-control = 1): 1.51
Peptide_053 [5]
  signal (blank-control = 1): 1.35
Peptide_046 [6]
  signal (blank-control = 1): 1.96
Peptide_052 [7]
  signal (blank-control = 1): 1.23
Peptide_048 [8]
  signal (blank-control = 1): 6.57
Peptide_047 [9]
  signal (blank-control = 1): 1.5
Peptide_050 [10]
  signal (blank-control = 1): 0.68
Peptide_056 [11]
  signal (blank-control = 1): 1.11
Peptide_054 [12]
  signal (blank-control = 1): 0.84
Peptide_057 [13]
  signal (blank-control = 1): 1.94
Peptide_055 [14]
  signal (blank-control = 1): 1.04
Peptide_049 [15]
  signal (blank-control = 1): 1.45
Peptide_053 [16]
  signal (blank-control = 1): 1.66
Peptide_046 [17]
  signal (blank-control = 1): 2
Peptide_052 [18]
  signal (blank-control = 1): 1.38
Peptide_048 [19]
  signal (blank-control = 1): 5.99
Peptide_047 [20]
  signal (blank-control = 1): 1.58
Peptide_050 [21]
  signal (blank-control = 1): 0.65
Peptide_056 [22]
  signal (blank-control = 1): 1.24
Peptide_054 [23]
  signal (blank-control = 1): 2.36
Peptide_057 [24]
  signal (blank-control = 1): 2.39
Peptide_053 [25]
  signal (blank-control = 1): 2.45
Peptide_052 [26]
  signal (blank-control = 1): 3.84
Peptide_048 [27]
  signal (blank-control = 1): 6.1
Peptide_050 [28]
  signal (blank-control = 1): 2.19
Peptide_056 [29]
  signal (blank-control = 1): 2.89
[30]
  Kd: 0.21 nM
Peptide_054 [31]
  signal (blank-control = 1): 1.15
Peptide_057 [32]
  signal (blank-control = 1): 2.07
Peptide_055 [33]
  signal (blank-control = 1): 1.38
Peptide_049 [34]
  signal (blank-control = 1): 1.96
Peptide_053 [35]
  signal (blank-control = 1): 2.13
Peptide_046 [36]
  signal (blank-control = 1): 3.18
Peptide_052 [37]
  signal (blank-control = 1): 2.38
Peptide_048 [38]
  signal (blank-control = 1): 6
Peptide_047 [39]
  signal (blank-control = 1): 2.25
Peptide_050 [40]
  signal (blank-control = 1): 1.09
Peptide_056 [41]
  signal (blank-control = 1): 1.84

B2: monoclonal antibody B264 (antibody, mouse IgG1, kappa, V domains shown)
VH: QVQLQQSGAELARPGASVKMSCKASGYTFTSYTMHWVKQRPGQGLEWIGYINPTSDYTNYNQKFKDKATLTADKSSSTAYMQLSSLTSEDSAVYFCASEGGFLYYFDYWGQGTTLTVSS
VL: DVLMTQTPLSLPVSLGDQASISCRSSQSIVHSNGNTYLEWYLQKPGQSPKLLIYKVSNRFSGVPDRFSGSGSGTDFTLKISRVEAEDLGVYYCFQGSHVPYTFGGGTKLEIKR
notes: also called AB264; B264 (Trx1-mIgG1)
Peptide_054 [1]
  signal (blank-control = 1): 0.99
Peptide_057 [2]
  signal (blank-control = 1): 2.15
Peptide_055 [3]
  signal (blank-control = 1): 1.51
Peptide_049 [4]
  signal (blank-control = 1): 1.48
Peptide_053 [5]
  signal (blank-control = 1): 2.54
Peptide_046 [6]
  signal (blank-control = 1): 2.87
Peptide_052 [7]
  signal (blank-control = 1): 2.02
Peptide_048 [8]
  signal (blank-control = 1): 6.34
Peptide_047 [9]
  signal (blank-control = 1): 1.97
Peptide_050 [10]
  signal (blank-control = 1): 0.64
Peptide_056 [11]
  signal (blank-control = 1): 1.35
Peptide_054 [12]
  signal (blank-control = 1): 0.89
Peptide_057 [13]
  signal (blank-control = 1): 2.08
Peptide_055 [14]
  signal (blank-control = 1): 2.21
Peptide_049 [15]
  signal (blank-control = 1): 1.34
Peptide_053 [16]
  signal (blank-control = 1): 4.75
Peptide_046 [17]
  signal (blank-control = 1): 3.44
Peptide_052 [18]
  signal (blank-control = 1): 2.56
Peptide_048 [19]
  signal (blank-control = 1): 4.61
Peptide_047 [20]
  signal (blank-control = 1): 2.52
Peptide_050 [21]
  signal (blank-control = 1): 0.46
Peptide_056 [22]
  signal (blank-control = 1): 1.72
Peptide_054 [23]
  signal (blank-control = 1): 1.46
Peptide_057 [24]
  signal (blank-control = 1): 2.44
Peptide_053 [25]
  signal (blank-control = 1): 6.49
Peptide_052 [26]
  signal (blank-control = 1): 5.14
Peptide_048 [27]
  signal (blank-control = 1): 2.15
Peptide_050 [28]
  signal (blank-control = 1): 0.54
Peptide_056 [29]
  signal (blank-control = 1): 2.86
[30]
  Kd: 0.17 nM
  reaction value (OD 490) relative to B266-1: ~50%
Peptide_054 [31]
  signal (blank-control = 1): 1.43
Peptide_057 [32]
  signal (blank-control = 1): 2.19
Peptide_055 [33]
  signal (blank-control = 1): 3.26
Peptide_049 [34]
  signal (blank-control = 1): 1.2
Peptide_053 [35]
  signal (blank-control = 1): 8.52
Peptide_046 [36]
  signal (blank-control = 1): 5.62
Peptide_052 [37]
  signal (blank-control = 1): 4.43
Peptide_048 [38]
  signal (blank-control = 1): 3.91
Peptide_047 [39]
  signal (blank-control = 1): 4.07
Peptide_050 [40]
  signal (blank-control = 1): 0.47
Peptide_056 [41]
  signal (blank-control = 1): 2.58
